Literature values, collected in PMC4567469.

Target: Ran (Homo sapiens) (UniProt P62826)

For “Leader protein (LE) (from UniProt P03304)”, the Kd is given as 3 nM.
